Results: patent US20160010082A1

Target: Alexa labeled human IgG
Assay: flow cytometry of E. coli displaying the construct, 300 nM Alexa labeled human IgG; two hour induction; reference CPX display

Question: For “eCPX displaying the mini-Z-domain at the N-terminus”, which fold higher display level than from CPX is on record?
Answer: 3 fold
